In patent US10100129B2, “Antibodies against CD73 and uses thereof” (BRISTOL-MYERS SQUIBB COMPANY, priority 2014, dated 2018):
Where a chain is given by its changes, count along the chain named. In names and notes the source's numbering stands.

T1: CD32a-R131 (FcgRIIa-R131) (Homo sapiens, UniProt P12318, H167R)
T1 sequence (P12318 34-217 H167R limits assumed): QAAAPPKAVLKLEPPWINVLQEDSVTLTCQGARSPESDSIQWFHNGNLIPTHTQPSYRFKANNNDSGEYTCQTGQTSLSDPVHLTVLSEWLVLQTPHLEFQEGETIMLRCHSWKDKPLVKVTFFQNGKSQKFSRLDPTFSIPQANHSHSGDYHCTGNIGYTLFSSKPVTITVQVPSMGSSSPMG

T2: CD32b (FcgRIIb) (Homo sapiens, UniProt P31994)
T2 sequence (P31994 43-310): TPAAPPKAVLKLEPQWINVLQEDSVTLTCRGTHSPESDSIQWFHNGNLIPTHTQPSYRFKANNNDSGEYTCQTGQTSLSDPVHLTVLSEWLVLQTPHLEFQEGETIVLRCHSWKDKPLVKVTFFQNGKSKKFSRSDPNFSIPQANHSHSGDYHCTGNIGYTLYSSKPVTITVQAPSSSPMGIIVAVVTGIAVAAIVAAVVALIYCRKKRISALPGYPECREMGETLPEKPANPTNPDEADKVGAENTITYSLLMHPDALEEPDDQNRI

T3: CD32a-H131 (FcgRIIa-H131) (Homo sapiens, UniProt P12318)
T3 sequence (P12318 34-217 limits assumed): T1 sequence (P12318 34-217 H167R limits assumed) with R134H

B1: mAb7-IgG2.5G1-AY-V27 (protein)
constant: ASTKGPSVFPLAPSSRSTSESTAALGCLVKDYFPEPVTVSWNSGALTSGVHTFPAVLQSSGLYSLSSVVTVPSSNFGTQTYTCNVDHKPSNTKVDKTVERKCCVECPPCPAPELLGGPSVFLFPPKPKDTLMISRTPEVTCVVVDVEHEDPEVKFNWYVDGVEVHNAKTKPREEQYNSTYRVVSVLTVLHQDWLNGKEYKCKVSNKALPAPIEKTISKAKGQPREPQVYTLPPSREEMTKNQVSLTCLVKGFYPSDIAVEWESNGQPENNYKTTPPVLDSDGSFFLYSKLTVDKSRWQQGNVFSCSVMHEALHNHYTQKSLSLSPGK
modifications: left off: another chain or arm of the molecule
B2: mAb7-IgG2.3G1-AY-V27 (protein)
constant: B1 constant with S14C, C102S
modifications: left off: another chain or arm of the molecule
B3: mAb8-IgG2.5G1-AY-V27 (protein)
constant: B1 constant
modifications: left off: another chain or arm of the molecule
B4: mAb6-IgG2.5 (protein)
constant: ASTKGPSVFPLAPSSRSTSESTAALGCLVKDYFPEPVTVSWNSGALTSGVHTFPAVLQSSGLYSLSSVVTVPSSNFGTQTYTCNVDHKPSNTKVDKTVERKCCVECPPCPAPPVAGPSVFLFPPKPKDTLMISRTPEVTCVVVDVSHEDPEVQFNWYVDGVEVHNAKTKPREEQFNSTFRVVSVLTVVHQDWLNGKEYKCKVSNKGLPAPIEKTISKTKGQPREPQVYTLPPSREEMTKNQVSLTCLVKGFYPSDIAVEWESNGQPENNYKTTPPMLDSDGSFFLYSKLTVDKSRWQQGNVFSCSVMHEALHNHYTQKSLSLSPGK
modifications: left off: another chain or arm of the molecule
B5: mAb5-IgG2.5 (protein)
constant: B4 constant
modifications: left off: another chain or arm of the molecule
B6: mAb13-IgG2.5 (protein)
constant: B4 constant
modifications: left off: another chain or arm of the molecule
B7: mAb4-IgG2.5 (protein)
constant: B4 constant
modifications: left off: another chain or arm of the molecule
B8: IgG2.3plusTHT: modified IgG2.3 constant region construct (protein)
chain: ASTKGPSVFPLAPCSRSTSESTAALGCLVKDYFPEPVTVSWNSGALTSGVHTFPAVLQSSGLYSLSSVVTVPSSNFGTQTYTCNVDHKPSNTKVDKTVERKSCVETHTCPPCPAPPVAGPSVFLFPPKPKDTLMISRTPEVTCVVVDVSHEDPEVQFNWYVDGVEVHNAKTKPREEQFNSTFRVVSVLTVVHQDWLNGKEYKCKVSNKGLPAPIEKTISKTKGQPREPQVYTLPPSREEMTKNQVSLTCLVKGFYPSDIAVEWESNGQPENNYKTTPPMLDSDGSFFLYSKLTVDKSRWQQGNVFSCSVMHEALHNHYTQKSLSLSPGK
modifications: Synthetic: IgG2.3-plusTHT
notes: modified IgG2.3 constant region construct
B9: IgG2.5plusTHT: modified IgG2.5 constant region construct (protein)
chain: B8 chain with C14S, S102C
modifications: Synthetic: IgG2.5-plusTHT
notes: modified IgG2.5 constant region construct
B10: IgG2.3plusGGG: modified IgG2.3 constant region construct (protein)
chain: B8 chain with T106G, H107G, T108G
modifications: Synthetic: IgG2.3-plusGGG
notes: as for B8
B11: IgG2.3G1-AY-V27: IgG2.3G1-AY constant region with S267E (protein)
chain: B1 constant with S14C, C102S
modifications: Synthetic: IgG2.3G1-AY-V27
notes: IgG2.3G1-AY constant region with S267E

Target: CD64 (FcgRI) (Homo sapiens, UniProt P12314)
Assay: SPR binding of 1.0 μM antibody to anti-his Fab captured FcgR-his: CD64
Details: not given
Description: (§1) The binding of antibodies to Fc gamma receptors (FcγRs or FcgRs) was studied using biosensor technologies including Biacore surface plasmon resonance (SPR) and Fortebio Biolayer Interferometry (BLI). SPR studies were performed on a Biacore T100 instrument (GE Healthcare) at 25° C. The Fab fragment from a murine anti-6×His antibody was immobilized on a CM5 sensor chip using EDC/NHS to a density of ˜3000 RU. Various his-tagged FcgRs (7 ug/ml) were captured via the C-terminal his-tag using a contact time of 30 s at 10 ul/min, and the binding of 1.0 μM antibody was evaluated in a running buffer of 10 mM NaPO4, 130 mM NaCl, 0.05% p20 (PBS-T) pH 7.1. FcgRs used for these experiments included CD64 (FcgRI), CD32a-H131 (FcgRIIa-H131), CD32a-R131 (FcgRIIa-R131), CD32b (FcgRIIb), CD16a-V158 (FcgRIIIa-V158), CD16b-NA1 (FcgRIIIb-NA1), and CD16B-NA2 (FcgRIIIb-NA2). BLI experiments were performed on a Fortebio Octet RED instrument (Pall, Fortebio) at 25° C. in 10 mM NaPO4, 130 mM NaCl, 0.05% p20 (PBS-T) pH 7.1. Antibodies were captured out of undiluted expression supernatants on protein A coated sensors, followed by the binding of 1 μM hCD32a-H131, hCD32a-R131, hCD32b, hCD16a-V158, or 0.1 μM hCD64 analytes.

CD64 (FcgRI), sequence (P12314 16-374): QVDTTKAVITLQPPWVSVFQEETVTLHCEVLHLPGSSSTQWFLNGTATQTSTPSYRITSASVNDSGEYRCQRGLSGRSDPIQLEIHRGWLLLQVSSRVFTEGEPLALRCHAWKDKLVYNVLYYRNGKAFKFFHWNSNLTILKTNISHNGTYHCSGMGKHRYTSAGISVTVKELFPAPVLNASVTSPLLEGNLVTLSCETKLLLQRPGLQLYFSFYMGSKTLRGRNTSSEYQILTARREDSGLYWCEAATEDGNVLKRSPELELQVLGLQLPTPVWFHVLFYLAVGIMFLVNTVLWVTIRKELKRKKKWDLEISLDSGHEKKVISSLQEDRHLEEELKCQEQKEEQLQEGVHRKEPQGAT

Point of comparison: B5, “% Rmax, binding to hCD64” value 6%. Against it:
- B1 — higher, 81%
- B2 — higher, 84%
- B3 — higher, 77%
- B4 — lower, 3%
- B6 — lower, −2%
- B7 — lower, 2%

Target: T1, CD32a-R131 (FcgRIIa-R131)
Assay: SPR binding to FcgR-his: CD32a-R131
Details: 1 μM antibody, anti-his Fab captured FcgR-his
Description: as §1

Point of comparison: B7, “% Rmax, binding to hCD32a-R131” value 8%. Against it:
- B1 — higher, 89%
- B2 — higher, 92%
- B3 — higher, 79%
- B4 — higher, 17%
- B5 — higher, 26%
- B6 — lower, 4%

Target: CD16B-NA2 (FcgRIIIb-NA2) (Homo sapiens, UniProt O75015)
Assay: SPR binding to FcgR-his: CD16B-NA2
Details: 1 μM antibody, anti-his Fab captured FcgR-his
Description: as §1

CD16B-NA2 (FcgRIIIb-NA2), sequence (O75015 17-200 limits assumed): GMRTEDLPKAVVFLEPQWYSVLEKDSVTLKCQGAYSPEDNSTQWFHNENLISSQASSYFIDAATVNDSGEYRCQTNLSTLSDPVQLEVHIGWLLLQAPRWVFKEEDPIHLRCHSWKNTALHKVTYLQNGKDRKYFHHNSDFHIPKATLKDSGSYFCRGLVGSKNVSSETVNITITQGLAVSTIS

Point of comparison: B2, “% Rmax, binding to hCD16B-NA2” value 7%. Against it:
- B1 — higher, 9%
- B3 — higher, 10%
- B4 — lower, 0%
- B5 — lower, 1%
- B6 — lower, −2%
- B7 — lower, 0%

Tested on: human FcγRs
Assay: SPR binding profile to human FcγRs (panel)
Details: not given
Description: Binding of the constructs to human FcγRs was measured via SPR. hCD64 and hCD32a-H131 binding data for IgG1.1 and IgG2 molecules were consistent with expected values for the different Fcs. IgG1.1f is the most inert Fc.
as §1
This engineering strategy was further explored by producing other antibodies formatted with IgG2.3G1-AY, IgG2.3G1-AY-S267E (IgG2.3G1-AY-V27), as well as IgG2-B-form variants (IgG2.5G1-AY and IgG2.5G1-AY-V27), and other hybrid antibodies containing different combinations of IgG1 and IgG2 constant domains, and testing the binding of these antibodies to anti-his Fab captured his-tagged FcgRs using Biacore SPR technology.

B8 was tested, and the “FcgR binding properties by SPR (in words)” value (shortened to “FcgR binding properties”) was “unable to retain IgG1f-like FcgR binding properties”.
B9 was tested, and the “FcgR binding properties” value was “unable to retain IgG1f-like FcgR binding properties”.
With B10 the “FcgR binding properties” value was “unable to retain IgG1f-like FcgR binding properties”.
For B11, the “FcgR binding properties” value was “comparable FcgR binding properties to IgG1f and IgG1f-S267E, respectively”.

Target: T2, CD32b (FcgRIIb)
Assay: SPR binding to FcgR-his: CD32b
Details: 1 μM antibody, anti-his Fab captured FcgR-his
Description: as §1

Point of comparison: B6, “% Rmax, binding to hCD32b” value −2%. Against it:
- B1 — higher, 84%
- B2 — higher, 76%
- B3 — higher, 77%
- B4 — higher, 4%
- B5 — higher, 5%
- B7 — higher, 1%

Target: CD16a-V158 (FcgRIIIa-V158) (Homo sapiens, UniProt P08637, F176V)
Assay: SPR binding to FcgR-his: CD16a-V158
Details: 1 μM antibody, anti-his Fab captured FcgR-his
Description: as §1

CD16a-V158 (FcgRIIIa-V158), sequence (P08637 17-208 F176V limits assumed): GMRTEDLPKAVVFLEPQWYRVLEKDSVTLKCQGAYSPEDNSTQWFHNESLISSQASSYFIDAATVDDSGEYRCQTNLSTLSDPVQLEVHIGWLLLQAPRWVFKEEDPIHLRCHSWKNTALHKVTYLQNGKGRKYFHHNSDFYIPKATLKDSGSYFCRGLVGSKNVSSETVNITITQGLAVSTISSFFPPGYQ

Point of comparison: B5, “% Rmax, binding to hCD16a-V158” value 4%. Against it:
- B1 — higher, 32%
- B2 — higher, 26%
- B3 — higher, 33%
- B4 — lower, 2%
- B6 — lower, 0%
- B7 — lower, 1%

Target: T3, CD32a-H131 (FcgRIIa-H131)
Assay: SPR binding to FcgR-his: CD32a-H131
Details: 1 μM antibody, anti-his Fab captured FcgR-his
Description: as §1

Point of comparison: B2, “% Rmax, binding to hCD32a-H131” value 68%. Against it:
- B1 — higher, 74%
- B3 — higher, 76%
- B4 — higher, 75%
- B5 — higher, 89%
- B6 — lower, 39%
- B7 — lower, 46%
